Reference: patent US8697369B2, “Method for screening a test substance for activating a receptor associated with FGF 21 activity” (National Institute of Advanced Industrial Science and …, priority 2007, dated 2014)

Experiments:
Type in all cases: cell-based
[1] = target: T1, humanized FGFR1c/humanized betaKlotho (hβKlotho)-expressing cells (Homo sapiens, UniProt P11362+Q86Z14); assay: DNA synthesis in humanized FGFR1c/humanized betaKlotho-expressing BaF3 cells; conditions: humanized FGFR1c and humanized betaKlotho; 10 μg/ml heparin
T1 construct: expressed in transfected cells; host or cells: BaF3 (mouse pro-B) cells; pSRalpha (FGFR1c), pcDNA3.1 (betaKlotho)
Source text: (§1) In Examples 4, 5, 6, and 7, it was shown that FGF21 reacts with FGFR1c in the presence of betaKlotho. FGFR1c, betaKlotho, FGF21, and the like, which were used in an actual experimental system, were all derived from mice used as typical mammalian models. With regard to these molecules, the homology between a human and a mouse at the amino acid sequence level is extremely high (80% in FGF21, 78% in betaKlotho, and 98% in FGFR1). As a result, naturally, there are no problems regarding the compatibility of the human with the mouse, and thus it is clear that the same results as those from a murine molecule will be obtained even using a humanized molecule. In the present example, as a precautionary measure, an experimental system using a humanized molecule was constructed to confirm such respect, and an experiment was carried out. Specifically, the humanized cDNA of FGFR1c and that of betaKlotho were prepared from a commercially available human RNA sample (Takara Bio Inc.) by PCR. FGFR1c was introduced into an expression vector having an SRalpha promoter (pSRalpha), and betaKlotho was introduced into an expression vector having a CMV promoter (pcDNA3.1; Invitrogen). […] In the presence of heparin, humanized FGF21 was added in various types of concentrations to FGFR1c-expressing cells or FGFR1c/betaKlotho-co-expressing cells, and the amount of DNA synthesized was then measured.

[2] = target: T2, humanized FGFR3c/humanized betaKlotho (hβKlotho)-expressing cells (Homo sapiens, UniProt P22607+Q86Z14, A441S/A461E/A470D/A499P/A500N/A559S/A717S/A734V/A765M/C582S/D512S/D516E/D576E/D580N/D722E/D758Q/D785E/DEL405-414/E426D/E447G/E729D/E768D/F566Y/F579Y/F591S/F767L/G446S/G448T/G548D/G773S/G774F/H721N/I440P/I494L/I698V/I726M/INS417HSQMAVHKLAKSI/INS423TV/INS780T/K420R/K464R/K501R/K583H/L398M/L425A/L457Y/L554I/L645I/L752V/M488L/N428S/N434G/N453G/N644H/P401G/P402T/P436L/P502V/P584N/P778R/Q611K/Q775P/R397K/R399K/R416D/R498K/R568Q/S432N/S468P/S578C/S781C/T435V/T450M/T473V/T504K/T581P/T590S/T753A/T757N/V503T/V523I/V642I/V670I/V751I/V754L); assay: DNA synthesis in humanized FGFR3c/humanized betaKlotho-expressing BaF3 cells; conditions: humanized FGFR3c and humanized betaKlotho; 10 μg/ml heparin
T2 construct: expressed in transfected cells; host or cells: BaF3 (mouse pro-B) cells
Experimental: The homology between human FGFR3 and mouse FGFR3 at the amino acid sequence level is 93%. […] The cDNA of humanized FGFR3c was prepared from a commercially available human RNA sample (Takara Bio Inc.) by PCR. The sequence of its intracellular portion was substituted with the sequence of humanized FGFR1, and it was then introduced into an expression vector having an SRalpha promoter (pSRalpha). The FGFR3c expression vector was introduced into BaF3 cells by an electroporation method, so as to obtain FGFR3c-expressing BaF3 cells as G418-resistant clones. In the case of FGFR3c/betaKlotho-co-expressing cells, a betaKlotho expression vector was introduced into the FGFR3c-expressing BaF3 cells, so as to obtain the aforementioned cells as Puromycin-resistant clones. In the presence of heparin, humanized FGF21 was added in various types of concentrations to FGFR3c-expressing cells or FGFR3c/betaKlotho-co-expressing cells, and the amount of DNA synthesized was then measured.

[3] = target: T3, humanized FGFR1c (hR1c)-expressing BaF3 cells (Homo sapiens, UniProt P11362); assay: DNA synthesis in humanized FGFR1c-expressing BaF3 cells; conditions: humanized FGFR1c only; 10 μg/ml heparin
T3 construct: expressed in transfected cells; host or cells: BaF3 (mouse pro-B) cells; pSRalpha vector
Source text: as §1

[4] = system: undifferentiated 3T3-L1 fibroblasts; assay: GLUT1 mRNA expression in undifferentiated 3T3-L1 fibroblasts; conditions: various concentrations, 6 hours
Experimental: It has been reported that FGF21 allows adipocytes to increasingly express glucose transporter 1 (GLUT1). In the present example, as cultured adipocytes, there were used 3T3-L1 cells that are fibroblasts having the ability to differentiate into adipocytes by controlling culture conditions. The cells were cultured in a culture solution of a Dulbecco's modified Eagle medium (DMEM) containing 10% fetal bovine serum (FBS), so as to prepare cells maintaining an undifferentiated property as fibroblasts. The prepared cells were cultured in a test system, and they were allowed to grow to a confluent state. The cells were then left for 2 days. Thereafter, the culture solution was exchanged with DMEM as a culture solution used for differentiation induction, which comprised 10% FBS, 0.25 μM dexamethasone, 0.5 mM methyl isobutyl xanthine, and 5 μg/ml insulin. The cells were cultured for 2 days. […] The term “cells having the properties of adipocytes” is used herein to mean cells, which conduct intracellular metabolism specific to adipocytes and have cytoplasm in which large quantities of fat droplets are accumulated.
FGF21 were added in various types of concentrations to such different types of culture solutions, and the cells were further culture for 6 hours. Thereafter, RNA was extracted, and the copy number of GLUT1 was counted.

T2 sequence (P22607 other isoform, or with tags, fused parts or gaps with the stated changes): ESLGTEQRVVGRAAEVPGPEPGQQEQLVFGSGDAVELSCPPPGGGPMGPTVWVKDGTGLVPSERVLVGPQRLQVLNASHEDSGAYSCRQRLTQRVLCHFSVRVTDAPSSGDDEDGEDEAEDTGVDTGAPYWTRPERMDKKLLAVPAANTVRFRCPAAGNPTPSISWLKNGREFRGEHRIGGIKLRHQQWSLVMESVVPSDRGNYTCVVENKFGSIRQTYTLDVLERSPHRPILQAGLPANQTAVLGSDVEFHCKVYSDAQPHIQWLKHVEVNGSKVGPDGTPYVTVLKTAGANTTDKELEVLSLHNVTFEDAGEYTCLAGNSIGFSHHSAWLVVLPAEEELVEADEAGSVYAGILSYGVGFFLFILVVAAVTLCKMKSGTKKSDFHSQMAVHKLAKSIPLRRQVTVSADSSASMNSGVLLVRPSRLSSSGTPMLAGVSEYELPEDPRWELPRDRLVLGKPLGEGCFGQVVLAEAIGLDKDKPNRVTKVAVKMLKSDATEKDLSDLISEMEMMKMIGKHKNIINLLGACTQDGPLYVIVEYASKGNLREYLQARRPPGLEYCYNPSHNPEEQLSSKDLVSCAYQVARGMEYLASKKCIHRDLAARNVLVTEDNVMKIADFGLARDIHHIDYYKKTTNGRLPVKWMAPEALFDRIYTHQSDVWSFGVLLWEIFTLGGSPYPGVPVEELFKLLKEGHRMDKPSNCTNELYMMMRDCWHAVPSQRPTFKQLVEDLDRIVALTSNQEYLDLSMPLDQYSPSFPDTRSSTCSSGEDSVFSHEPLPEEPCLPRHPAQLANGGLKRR
T2 sequence (Q86Z14 whole entry, stated change not applied): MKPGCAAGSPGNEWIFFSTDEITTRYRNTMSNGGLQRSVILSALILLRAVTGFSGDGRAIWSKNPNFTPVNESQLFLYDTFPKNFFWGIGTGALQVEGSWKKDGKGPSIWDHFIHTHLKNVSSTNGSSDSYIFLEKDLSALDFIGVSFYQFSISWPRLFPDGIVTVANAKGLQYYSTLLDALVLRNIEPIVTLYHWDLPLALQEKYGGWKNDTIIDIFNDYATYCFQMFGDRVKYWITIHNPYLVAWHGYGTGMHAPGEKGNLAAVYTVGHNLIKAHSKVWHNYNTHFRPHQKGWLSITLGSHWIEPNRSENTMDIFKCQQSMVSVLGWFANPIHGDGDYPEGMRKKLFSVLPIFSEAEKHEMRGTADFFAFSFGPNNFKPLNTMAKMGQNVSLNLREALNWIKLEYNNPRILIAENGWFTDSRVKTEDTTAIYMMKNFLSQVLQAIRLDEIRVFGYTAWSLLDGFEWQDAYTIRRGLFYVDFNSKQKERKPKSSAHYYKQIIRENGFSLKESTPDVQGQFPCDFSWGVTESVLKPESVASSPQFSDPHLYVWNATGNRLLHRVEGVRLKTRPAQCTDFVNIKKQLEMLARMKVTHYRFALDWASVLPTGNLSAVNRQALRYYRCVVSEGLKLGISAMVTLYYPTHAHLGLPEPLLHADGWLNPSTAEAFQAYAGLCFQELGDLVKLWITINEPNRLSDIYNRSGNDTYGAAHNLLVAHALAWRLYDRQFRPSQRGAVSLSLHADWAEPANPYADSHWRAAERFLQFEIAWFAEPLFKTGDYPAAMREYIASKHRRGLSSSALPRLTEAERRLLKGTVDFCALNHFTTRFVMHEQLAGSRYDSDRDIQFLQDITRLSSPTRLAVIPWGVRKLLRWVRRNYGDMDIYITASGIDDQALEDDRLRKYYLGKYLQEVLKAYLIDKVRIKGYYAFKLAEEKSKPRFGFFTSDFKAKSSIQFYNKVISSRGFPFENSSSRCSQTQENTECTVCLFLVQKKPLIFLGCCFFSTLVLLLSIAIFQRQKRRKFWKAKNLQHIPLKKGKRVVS
T1 sequence (P11362 22-822): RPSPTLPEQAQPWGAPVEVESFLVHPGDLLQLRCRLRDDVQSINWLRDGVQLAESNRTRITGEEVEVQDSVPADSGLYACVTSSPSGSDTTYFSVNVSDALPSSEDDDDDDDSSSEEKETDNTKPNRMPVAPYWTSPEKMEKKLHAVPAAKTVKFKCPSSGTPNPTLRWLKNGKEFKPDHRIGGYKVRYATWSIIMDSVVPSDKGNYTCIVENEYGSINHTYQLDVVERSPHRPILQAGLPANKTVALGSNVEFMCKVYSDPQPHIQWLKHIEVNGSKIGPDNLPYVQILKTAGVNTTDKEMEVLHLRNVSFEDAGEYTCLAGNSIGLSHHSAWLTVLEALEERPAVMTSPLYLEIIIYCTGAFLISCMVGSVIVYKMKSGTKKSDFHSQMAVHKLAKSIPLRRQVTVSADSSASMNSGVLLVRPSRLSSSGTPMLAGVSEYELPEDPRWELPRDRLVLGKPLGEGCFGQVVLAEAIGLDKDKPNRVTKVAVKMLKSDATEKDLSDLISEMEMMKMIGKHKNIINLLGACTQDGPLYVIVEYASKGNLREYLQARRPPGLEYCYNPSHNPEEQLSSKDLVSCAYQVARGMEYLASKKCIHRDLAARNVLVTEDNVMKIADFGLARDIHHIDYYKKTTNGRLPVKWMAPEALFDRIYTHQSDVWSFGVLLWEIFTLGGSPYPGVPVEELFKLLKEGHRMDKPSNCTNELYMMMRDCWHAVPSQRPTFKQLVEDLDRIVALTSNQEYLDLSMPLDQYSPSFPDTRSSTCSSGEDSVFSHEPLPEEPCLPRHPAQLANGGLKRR
T1 sequence (Q86Z14 whole entry): as the sequence (Q86Z14 whole entry, stated change not applied) above
T3 sequence (P11362 22-822): as the sequence (P11362 22-822) above

| amount of DNA synthesized (thymidine incorporation) [1] | amount of DNA synthesized (thymidine incorporation) [2] | amount of DNA synthesized (thymidine incorporation) [3] | Molecule | expression level of GLUT1 mRNA [4] |
| --- | --- | --- | --- | --- |
| promoted the DNA synthesis | promoted the DNA synthesis | promoted the DNA synthesis | FGF1: conventional FGF used as a control | – |
| – | – | – | FGF21: fibroblast growth factor 21; mouse-derived protein used in Examples 1-7 and 10-13 (protein) AYPIPDSSPLLQFGGQVRQRYLYTDDDQDTEAHLEIREDGTVVGAAHRSPESLLELKALKPGVIQILGVKASRFLCQQPDGALYGSPHFDPEACSFRELLLEDGYNVYQSEAHGLPLRLPQKDSPNQDATSWGPVRFLPMPGLLHEPQDQAGFLPPEPPDVGSSDPLSMVEPLQGRSPSYAS | hardly changed |
